Molecular target: human transferrin receptor (TFR) on Raji cells (human) (UniProt P02786)
Assay: FACS on Raji cells, secondary antibody without IgG1 clone [CONTINUED]

Chain of human transferrin receptor (TFR) on Raji cells (human) (P02786 whole entry): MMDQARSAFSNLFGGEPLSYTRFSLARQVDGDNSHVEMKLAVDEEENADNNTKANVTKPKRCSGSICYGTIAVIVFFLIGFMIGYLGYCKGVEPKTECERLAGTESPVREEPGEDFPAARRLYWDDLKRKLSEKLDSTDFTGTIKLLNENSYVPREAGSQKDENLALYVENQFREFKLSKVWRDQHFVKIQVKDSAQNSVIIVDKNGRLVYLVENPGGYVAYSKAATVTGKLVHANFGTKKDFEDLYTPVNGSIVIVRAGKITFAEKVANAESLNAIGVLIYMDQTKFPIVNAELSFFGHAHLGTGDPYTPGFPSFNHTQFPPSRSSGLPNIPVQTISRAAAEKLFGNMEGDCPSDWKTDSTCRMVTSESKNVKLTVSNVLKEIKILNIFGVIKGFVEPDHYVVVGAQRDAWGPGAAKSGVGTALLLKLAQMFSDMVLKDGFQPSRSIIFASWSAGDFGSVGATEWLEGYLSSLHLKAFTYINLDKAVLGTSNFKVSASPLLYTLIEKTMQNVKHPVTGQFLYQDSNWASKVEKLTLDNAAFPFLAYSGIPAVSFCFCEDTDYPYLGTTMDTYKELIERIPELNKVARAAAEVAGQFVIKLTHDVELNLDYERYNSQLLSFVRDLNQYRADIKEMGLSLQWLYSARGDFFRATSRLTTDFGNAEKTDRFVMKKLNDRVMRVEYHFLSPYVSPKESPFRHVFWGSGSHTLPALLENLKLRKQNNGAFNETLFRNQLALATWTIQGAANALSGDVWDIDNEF

ANTI-FAB ALEXA FLUOR 647 (antibody) showed a TFR gate, percent of cells of 19.1.

— US20210147566A1
